Laboratory results taken from US20240279310A1 (ALPINE IMMUNE SCIENCES, published 2024).
Positions count from the first letter of the chain named. Names may count otherwise. “And” between values parts separate entries of the source, which are not always exact repeats. Equal entries are not always repeated. Where two headings read alike, the source gives them in different places. Each block holds one binder with its values, some of them ahead of it.

Key:
Assay in all cases: cell-based or functional assay
[1] = target: T1, recombinant human APRIL (Tonbo Biosciences) (human, UniProt O75888 105-250, limits assumed)
T1 sequence (looked up): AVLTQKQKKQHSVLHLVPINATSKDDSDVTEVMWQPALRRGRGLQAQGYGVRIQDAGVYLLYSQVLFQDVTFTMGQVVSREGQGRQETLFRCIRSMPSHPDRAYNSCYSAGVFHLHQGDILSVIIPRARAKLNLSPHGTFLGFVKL

[2] = target: T2, recombinant human BAFF (BioLegend) (human, UniProt Q9Y275 134-285)
[3] = target: T2, recombinant human BAFF (BioLegend); remark: listed apart in the source
[4] = target: T1, recombinant human APRIL (Tonbo …); remark: listed apart in the source
[5] = target: BAFF 60-mer (an oligomer of twenty BAFF 3-mers)
[6] = target: T2, recombinant human BAFF (BioLegend); remark: listed apart in the source
[7] = target: T1, recombinant human APRIL (Tonbo …); remark: listed apart in the source
[8] = target: T2, recombinant human BAFF (BioLegend); remark: listed apart in the source

IC50 (pM) APRIL [1]: 17200 pM
IC50 (pM) BAFF [2]: 6850 pM
BAFF IC50 (pM) [3]: 9170 pM and 7300 pM
B1: Telitacicept/Tai'ai (RemeGen) (Fc fusion)
chain: SRVDQEERFPQGLWTGVAMRSCPEEQYWDPLLGTCMSCKTICNHQSQRTCAAFCRSLSCRKEQGKFYDHLLRDCISCASICGQHPKQCAYFCENKLRSPVNLPPEL

APRIL IC50 (pM) [4]: 34600 pM
BAFF 60-mer IC50 (pM) [5]: 4330 pM
BAFF IC50 (pM) [6]: 3290 pM
B2: TACI WT 13 (G4S)4 (84) (TACI WT 13 GSG4S (74) Fc 73 (SEQ ID NO: 198) (Fc fusion)
chain: SLSCRKEQGKFYDHLLRDCISCASICGQHPKQCAYFCENKLRSGGGGSGGGGSGGGGSGGGGSSLSCRKEQGKFYDHLLRDCISCASICGQHPKQCAYFCENKLRSGSGGGGSEPKSSDKTHTCPPCPAPEAEGAPSVFLFPPKPKDTLMISRTPEVTCVVVDVSHEDPEVKFNWYVDGVEVHNAKTKPREEQYNSTYRVVSVLTVLHQDWLNGKEYKCKVSNKALPAPIEKTISKAKGQPREPQVYTLPPSRDELTKNQVSLTCLVKGFYPSDIAVEWESNGQPENNYKTTPPVLDSDGSFFLYSKLTVDKSRWQQGNVFSCSVMHEALHNHYTQKSLSLSPG

IC50 (pM) APRIL [1]: 9260 pM
IC50 (pM) BAFF [2]: 8280 pM
BAFF IC50 (pM) [3]: 7740 pM
BAFF IC50 (Δ WT) [3]: 4.17 ratio
B3: atacicept (WT TACI-Fc sequences corresponding to atacicept, containing WT TACI 30-110; SEQ ID NO:132) (Fc fusion)
chain: AMRSCPEEQYWDPLLGTCMSCKTICNHQSQRTCAAFCRSLSCRKEQGKFYDHLLRDCISCASICGQHPKQCAYFCENKLRSEPKSSDKTHTCPPCPAPEAEGAPSVFLFPPKPKDTLMISRTPEVTCVVVDVSHEDPEVKFNWYVDGVEVHNAKTKPREEQYNSTYRVVSVLTVLHQDWLNGKEYKCKVSNKALPSSIEKTISKAKGQPREPQVYTLPPSRDELTKNQVSLTCLVKGFYPSDIAVEWESNGQPENNYKTTPPVLDSDGSFFLYSKLTVDKSRWQQGNVFSCSVMHEALHNHYTQKSLSLSPGK

APRIL IC50 (pM) [4]: 11900 pM
BAFF 60-mer IC50 (pM) [5]: 2580 pM
BAFF IC50 (pM) [6]: 1040 pM
B4: TACI WT 13 GSG4S (74) Fc 73(G4S)4 (84) (TACI WT 13 (SEQ ID NO: 202) (Fc fusion)
chain: SLSCRKEQGKFYDHLLRDCISCASICGQHPKQCAYFCENKLRSGSGGGGSEPKSSDKTHTCPPCPAPEAEGAPSVFLFPPKPKDTLMISRTPEVTCVVVDVSHEDPEVKFNWYVDGVEVHNAKTKPREEQYNSTYRVVSVLTVLHQDWLNGKEYKCKVSNKALPAPIEKTISKAKGQPREPQVYTLPPSRDELTKNQVSLTCLVKGFYPSDIAVEWESNGQPENNYKTTPPVLDSDGSFFLYSKLTVDKSRWQQGNVFSCSVMHEALHNHYTQKSLSLSPGGGGGSGGGGSGGGGSGGGGSSLSCRKEQGKFYDHLLRDCISCASICGQHPKQCAYFCENKLRS

APRIL IC50 (pM) [4]: 3760 pM
BAFF 60-mer IC50 (pM) [5]: 778 pM
BAFF IC50 (pM) [6]: 779 pM
B5: TACI 26 GSG4S (74) Fc 73 (G4S)4 (84) TACI 26 (SEQ ID NO: 201) (Fc fusion)
chain: B4 chain with K10E, F11Y, Y35D, K311E, F312Y, Y336D

BAFF 60-mer IC50 (pM) [5]: 24100 pM
BAFF IC50 (pM) [6]: 5700 pM
B6: TACI WT 13 GS(G4S)2 (194) sc_Fc 218 (SEQ ID NO: 196) (Fc fusion)
chain: SLSCRKEQGKFYDHLLRDCISCASICGQHPKQCAYFCENKLRSGSGGGGSGGGGSEPKSSDKTHTCPPCPAPEAEGAPSVFLFPPKPKDTLMISRTPEVTCVVVDVSHEDPEVKFNWYVDGVEVHNAKTKPREEQYNSTYRVVSVLTVLHQDWLNGKEYKCKVSNKALPAPIEKTISKAKGQPREPQVYTLPPSRDELTKNQVSLTCLVKGFYPSDIAVEWESNGQPENNYKTTPPVLDSDGSFFLYSKLTVDKSRWQQGNVFSCSVMHEALHNHYTQKSLSLSPGGGGGSGGGGSGGGGSGGGGSGGGGSGGGGSGGGGSGGGGSGGGGSGGGGSGGGGSGGGGSEPKSSDKTHTCPPCPAPEAEGAPSVFLFPPKPKDTLMISRTPEVTCVVVDVSHEDPEVKFNWYVDGVEVHNAKTKPREEQYNSTYRVVSVLTVLHQDWLNGKEYKCKVSNKALPAPIEKTISKAKGQPREPQVYTLPPSRDELTKNQVSLTCLVKGFYPSDIAVEWESNGQPENNYKTTPPVLDSDGSFFLYSKLTVDKSRWQQGNVFSCSVMHEALHNHYTQKSLSLSPG

BAFF 60-mer IC50 (pM) [5]: 106000 pM
BAFF IC50 (pM) [6]: 8240 pM
B7: TACI 26 GS(G4S)2 (194) scFc_218 (SEQ ID NO: 199) (Fc fusion)
chain: B6 chain with K10E, F11Y, Y35D

BAFF 60-mer IC50 (pM) [5]: 14300 pM
BAFF IC50 (pM) [6]: 4580 pM
B8: TACI WT 131 GS(G4S)2 (194) scFc_218 (SEQ ID NO: 205) (Fc fusion)
chain: SRVDQEERFPQGLWTGVAMRSCPEEQYWDPLLGTCMSCKTICNHQSQRTCAAFCRSLSCRKEQGKFYDHLLRDCISCASICGQHPKQCAYFCENKLRSPVNLPPELGSGGGGSGGGGSEPKSSDKTHTCPPCPAPEAEGAPSVFLFPPKPKDTLMISRTPEVTCVVVDVSHEDPEVKFNWYVDGVEVHNAKTKPREEQYNSTYRVVSVLTVLHQDWLNGKEYKCKVSNKALPAPIEKTISKAKGQPREPQVYTLPPSRDELTKNQVSLTCLVKGFYPSDIAVEWESNGQPENNYKTTPPVLDSDGSFFLYSKLTVDKSRWQQGNVFSCSVMHEALHNHYTQKSLSLSPGGGGGSGGGGSGGGGSGGGGSGGGGSGGGGSGGGGSGGGGSGGGGSGGGGSGGGGSGGGGSEPKSSDKTHTCPPCPAPEAEGAPSVFLFPPKPKDTLMISRTPEVTCVVVDVSHEDPEVKFNWYVDGVEVHNAKTKPREEQYNSTYRVVSVLTVLHQDWLNGKEYKCKVSNKALPAPIEKTISKAKGQPREPQVYTLPPSRDELTKNQVSLTCLVKGFYPSDIAVEWESNGQPENNYKTTPPVLDSDGSFFLYSKLTVDKSRWQQGNVFSCSVMHEALHNHYTQKSLSLSPG

BAFF 60-mer IC50 (pM) [5]: 15800 pM
BAFF IC50 (pM) [6]: 4420 pM
B9: TACI WT 1 GS(G4S)2 (194) scFc_218 (SEQ ID NO: 203) (Fc fusion)
chain: VAMRSCPEEQYWDPLLGTCMSCKTICNHQSQRTCAAFCRSLSCRKEQGKFYDHLLRDCISCASICGQHPKQCAYFCENKLRSGSGGGGSGGGGSEPKSSDKTHTCPPCPAPEAEGAPSVFLFPPKPKDTLMISRTPEVTCVVVDVSHEDPEVKFNWYVDGVEVHNAKTKPREEQYNSTYRVVSVLTVLHQDWLNGKEYKCKVSNKALPAPIEKTISKAKGQPREPQVYTLPPSRDELTKNQVSLTCLVKGFYPSDIAVEWESNGQPENNYKTTPPVLDSDGSFFLYSKLTVDKSRWQQGNVFSCSVMHEALHNHYTQKSLSLSPGGGGGSGGGGSGGGGSGGGGSGGGGSGGGGSGGGGSGGGGSGGGGSGGGGSGGGGSGGGGSEPKSSDKTHTCPPCPAPEAEGAPSVFLFPPKPKDTLMISRTPEVTCVVVDVSHEDPEVKFNWYVDGVEVHNAKTKPREEQYNSTYRVVSVLTVLHQDWLNGKEYKCKVSNKALPAPIEKTISKAKGQPREPQVYTLPPSRDELTKNQVSLTCLVKGFYPSDIAVEWESNGQPENNYKTTPPVLDSDGSFFLYSKLTVDKSRWQQGNVFSCSVMHEALHNHYTQKSLSLSPG

IC50 (pM) BAFF [2]: 2260 pM
IC50 (nM) APRIL [7]: 215000 nM
IC50 APRIL (Δ TACI 30-110-Fc) [7]: 55.8 ratio
IC50 (nM) BAFF [8]: 2500 nM
IC50 BAFF (Δ TACI 30-110-Fc) [8]: 0.43 ratio
BAFF IC50 (pM) [3]: 2200 pM
BAFF IC50 (Δ WT) [3]: 1.18 ratio
B10: belimumab, anti-BAFF monoclonal antibody (antibody, V domains shown)
VH: QVQLQQSGAEVKKPGSSVRVSCKASGGTFNNNAINWVRQAPGQGLEWMGGIIPMFGTAKYSQNFQGRVAITADESTGTASMELSSLRSEDTAVYYCARSRDLLLFPHHALSPWGRGTMVTVSS
VL: SSELTQDPAVSVALGQTVRVTCQGDSLRSYYASWYQQKPGQAPVLVIYGKNNRPSGIPDRFSGSSSGNTASLTITGAQAEDEADYYCSSRDSSGNHWVFGGGTELTVLG
